{
  "source": "patent US20220289837A1",
  "about": "(VIB VZW, published 2022)",
  "binders": {"B1": {"name": "Nanobody T2a (VHH, not shown: small tags and cut ends)", "VHH": "QVQLQESGGGLVQAGGSLRLSCAASGSIFRIDAMGWYRQAPGKQRELVAHSTSGGSTDYADSVKGRFTISRDNAKNTVYLQMNSLKPEDTAVYYCNADVRTRWYASNNYWGQGTQVTVSS", "notes": "Llama nanobody; also called Nb T2a; T2a Nb"}, "B2": {"name": "Nanobody T8 (VHH, not shown: small tags and cut ends)", "VHH": "QVQLQESGGGLVQPGGSLRLSCAASGSTSSINAMGWYRQAPGKQREPVAISSSGGDTRYAEPVKGRFTISRDNAQNKVYLQMNSLKPEDTAVYYCWLNWGRTSVNSWGQGTQVTVSS", "notes": "Llama nanobody; also called Nb T8; T8 Nb"}},
  "key": {"[1]": {"target": "T1, Stabilized human CFTR (stab-CFTR: 2PT/ΔRI/R1048A_1172X) (human, UniProt P13569 1-1171, limits assumed)", "T1 sequence (P13569 other isoform, or with tags, fused parts or gaps R1048A R1048A limits assumed)": "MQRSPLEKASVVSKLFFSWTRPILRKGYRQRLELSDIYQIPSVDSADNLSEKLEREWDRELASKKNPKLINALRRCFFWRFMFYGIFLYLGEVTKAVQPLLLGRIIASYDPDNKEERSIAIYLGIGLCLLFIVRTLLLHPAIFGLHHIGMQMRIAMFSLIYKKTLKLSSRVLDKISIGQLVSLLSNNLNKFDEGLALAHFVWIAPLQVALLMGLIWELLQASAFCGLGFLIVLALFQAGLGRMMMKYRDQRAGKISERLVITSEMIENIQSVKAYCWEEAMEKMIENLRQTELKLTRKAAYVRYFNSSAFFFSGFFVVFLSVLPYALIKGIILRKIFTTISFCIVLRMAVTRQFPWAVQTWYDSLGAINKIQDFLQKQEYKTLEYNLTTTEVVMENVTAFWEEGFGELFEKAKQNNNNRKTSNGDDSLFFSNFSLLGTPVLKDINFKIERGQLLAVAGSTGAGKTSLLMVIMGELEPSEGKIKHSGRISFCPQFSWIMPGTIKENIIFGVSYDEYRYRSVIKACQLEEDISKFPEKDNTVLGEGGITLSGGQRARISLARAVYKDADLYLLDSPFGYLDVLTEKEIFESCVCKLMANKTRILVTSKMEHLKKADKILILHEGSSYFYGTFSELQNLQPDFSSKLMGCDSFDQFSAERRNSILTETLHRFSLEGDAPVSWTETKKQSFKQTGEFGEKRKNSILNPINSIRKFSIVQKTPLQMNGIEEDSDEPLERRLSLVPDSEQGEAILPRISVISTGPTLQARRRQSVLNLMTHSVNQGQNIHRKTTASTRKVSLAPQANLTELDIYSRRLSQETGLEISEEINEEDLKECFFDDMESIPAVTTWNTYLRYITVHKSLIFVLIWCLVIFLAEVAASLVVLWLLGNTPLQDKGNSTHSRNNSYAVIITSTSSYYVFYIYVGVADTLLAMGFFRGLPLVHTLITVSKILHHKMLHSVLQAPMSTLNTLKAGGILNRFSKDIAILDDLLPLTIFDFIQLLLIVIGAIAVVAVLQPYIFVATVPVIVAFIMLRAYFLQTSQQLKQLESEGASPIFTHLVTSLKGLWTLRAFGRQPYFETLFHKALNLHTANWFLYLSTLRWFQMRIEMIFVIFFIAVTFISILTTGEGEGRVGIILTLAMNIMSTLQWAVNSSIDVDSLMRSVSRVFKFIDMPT", "assay": "cell-based or functional assay"}, "[2]": {"target": "T2, 2PT-NBD1 (human CFTR nucleotide-binding domain 1, residues 387-646, with S492P, A534P, I539T) (human, UniProt P13569 388-646, biotinylated for the ELISA (sites not given))", "T2 construct": "N-terminal His6-SUMO tag removed with Ulp1; In the T2a-T4 and T27 crystals the domain was cut by papain or subtilisin", "T2 sequence (P13569 388-646 V470M/S492P/A534P/I539T limits assumed)": "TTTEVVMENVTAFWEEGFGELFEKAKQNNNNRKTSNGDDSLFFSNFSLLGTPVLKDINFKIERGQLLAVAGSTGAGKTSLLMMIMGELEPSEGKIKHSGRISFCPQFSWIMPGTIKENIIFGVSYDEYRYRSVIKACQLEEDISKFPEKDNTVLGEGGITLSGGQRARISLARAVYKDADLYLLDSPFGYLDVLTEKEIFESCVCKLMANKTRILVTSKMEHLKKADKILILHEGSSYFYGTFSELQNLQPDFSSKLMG", "assay": "ELISA, biotinylated 2PT-NBD1 on avidin-coated plate, T2a titrated", "description": "(§1) The location of these nanobodies completely overlaps (FIG. 11a) with that of the C-terminal regulatory extension (RE) observed in previously published structures of NBD1^{[25,26].} The RE segment, comprising residues 654-673 was removed from the 2PT-NBD1 construct used for immunization and characterization. While the functional role of the RE is still unclear, it has been described to be a very mobile domain^{[27]}. […] This is consistent with RE being a dynamic region of CFTR.\n(§2) For dose-response assays, Nunc MaxiSorp 96-well plates (ThermoScientific), were coated with 5 μg/ml NeutrAvidin Biotin-Binding protein (ThermoScientific) overnight at 4° C. and blocked 2 h at room temperature (RT) with 2% milk in phosphate-buffered saline (PBS). Each new reagent addition was preceded by three washes with 200 μl of NBD1 buffer (20 mM HEPES pH 7.5, 150 mM NaCl, and 10% (w/v) glycerol, 10% (w/v) ethylene glycol, 2 mM ATP, 3 mM MgCl₂). Then, biotinylated purified NBD1 proteins at 5 μg/ml were immobilized 30 min at RT followed by 1 h RT incubation with 100 μl various concentrations (0-20 μg/ml) of purified nanobodies. […] 50 μl of 1-Step UltraTMB-ELISA (ThermoScientific) was used as a substrate for the peroxidase and intensity of the reaction was proportional to absorbance measured at 450 nm with SynergyMx (BioTek) after addition of 50 μl H₂SO₄ at 1M."}, "[3]": {"target": "2PT-NBD1-RE (2PT-NBD1 with residues 387-678, containing the regulatory extension) (human, UniProt P13569 387-678, biotinylated for the ELISA (sites not given))", "sequence (P13569 other isoform, or with tags, fused parts or gaps limits assumed)": "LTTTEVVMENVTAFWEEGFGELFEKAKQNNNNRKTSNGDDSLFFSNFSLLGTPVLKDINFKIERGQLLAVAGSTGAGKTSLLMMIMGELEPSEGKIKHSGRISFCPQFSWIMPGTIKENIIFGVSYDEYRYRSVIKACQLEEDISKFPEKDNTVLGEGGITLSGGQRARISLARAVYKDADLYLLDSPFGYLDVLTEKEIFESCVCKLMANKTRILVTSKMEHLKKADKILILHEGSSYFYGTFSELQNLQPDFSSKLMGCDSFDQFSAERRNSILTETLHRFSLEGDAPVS", "assay": "ELISA, biotinylated 2PT-NBD1-RE on avidin-coated plate, T2a titrated", "description": "as §1, §2"}, "[4]": {"target": "T1, Stabilized human CFTR (stab-CFTR: …)", "assay": "cell-based or functional assay", "remark": "listed apart in the source"}, "[5]": {"target": "T3, F508del-2PT-NBD1 (human, UniProt P13569 388-646, biotinylated for the ELISA (sites not given))", "T3 construct": "also called F508del-2PT-NBD1 mutant", "T3 sequence (P13569 other isoform, or with tags, fused parts or gaps limits assumed, stated change not applied)": "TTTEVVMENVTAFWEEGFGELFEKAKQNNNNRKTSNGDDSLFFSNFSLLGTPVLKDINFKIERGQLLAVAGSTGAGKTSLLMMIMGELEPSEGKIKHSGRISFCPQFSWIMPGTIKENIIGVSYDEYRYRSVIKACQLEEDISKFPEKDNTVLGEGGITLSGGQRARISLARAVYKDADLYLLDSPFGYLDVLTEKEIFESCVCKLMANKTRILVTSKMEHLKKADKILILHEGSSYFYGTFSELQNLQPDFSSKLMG", "assay": "ELISA, biotinylated F508del-2PT-NBD1 on avidin-coated plate, nanobody titrated, anti-His detection", "description": "(§3) (a) Nanobody binding to 2PT-NBD1 measured by ELISA. Biotinylated 2PT-NBD1 was immobilized on avidin-coated plates and incubated with increasing concentration of each nanobody. Binding of nanobody was followed by immunodetection of the His-tag (see Methods). Representative curve of 3 independent experiments is shown. Error bars represent the standard deviation (SD) of duplicates. Data were normalized to maximum signal for each nanobody separately. (b) Nanobody binding to F508del-2PT-NBD1 measured by ELISA as described in panel a. (c) Nanobody T4 binding to 2PT-NBD1 and F508del-2PT-NBD1. Data were normalized to maximum signal of T4 binding to 2PT-NBD1. (d) Nanobody T8 binding to 2PT-NBD1 and F508del-2PT-NBD1. Data were normalized to maximum signal of T8 binding to 2PT-NBD1.\nFor dose-response assays, Nunc MaxiSorp 96-well plates (ThermoScientific), were coated with 5 μg/ml NeutrAvidin Biotin-Binding protein (ThermoScientific) overnight at 4° C. and blocked 2 h at room temperature (RT) with 2% milk in phosphate-buffered saline (PBS). Each new reagent addition was preceded by three washes with 200 μl of NBD1 buffer (20 mM HEPES pH 7.5, 150 mM NaCl, and 10% (w/v) glycerol, 10% (w/v) ethylene glycol, 2 mM ATP, 3 mM MgCl₂). Then, biotinylated purified NBD1 proteins at 5 μg/ml were immobilized 30 min at RT followed by 1 h RT incubation with 100 μl various concentrations (0-20 μg/ml) of purified nanobodies. Signal detection was followed using His-tag specific antibody (Invitrogen, catalogue number: MA1-135, 1:3000 dilution) to detect the nanobodies and secondary antibody anti-mouse coupled to horse radish peroxidase (HRP) (Millipore, catalogue number: AP308P, 1:5000 dilution). 50 μl of 1-Step UltraTMB-ELISA (ThermoScientific) was used as a substrate for the peroxidase and intensity of the reaction was proportional to absorbance measured at 450 nm with SynergyMx (BioTek) after addition of 50 μl H₂SO₄ at 1M."}, "[6]": {"target": "T2, 2PT-NBD1 (human CFTR nucleotide-binding …)", "assay": "ELISA, biotinylated 2PT-NBD1 on avidin-coated plate, T8 titrated, anti-His detection", "description": "as §3\n(§4) For dose-response assays, Nunc MaxiSorp 96-well plates (ThermoScientific), were coated with 5 μg/ml NeutrAvidin Biotin-Binding protein (ThermoScientific) overnight at 4° C. and blocked 2 h at room temperature (RT) with 2% milk in phosphate-buffered saline (PBS). […] 50 μl of 1-Step UltraTMB-ELISA (ThermoScientific) was used as a substrate for the peroxidase and intensity of the reaction was proportional to absorbance measured at 450 nm with SynergyMx (BioTek) after addition of 50 μl H₂SO₄ at 1M."}, "[7]": {"target": "T3, F508del-2PT-NBD1", "assay": "ELISA, biotinylated F508del-2PT-NBD1 on avidin-coated plate, T8 titrated, anti-His detection; normalised to the maximum of T8 on 2PT-NBD1", "description": "as §3, §4"}},
  "data": [
    {"binder": "B1", "values": [
      {"measurement": "thermostabilization (nanoDSF, Tm)", "setting": "[1]", "value": 8, "unit": "°C"},
      {"measurement": "EC50 (read off the curve)", "setting": "[2]", "value": "~7", "unit": "nM"},
      {"measurement": "EC50 (read off the curve)", "setting": "[3]", "value": "~10", "unit": "nM"},
      {"measurement": "Tm of stab-CFTR in complex with the nanobody (nanoDSF, first derivative of 350 nm fluorescence); 'stab-CFTR (51.4°C)', 'T2a (66.6°C)' alone", "setting": "[4]", "value": 59.7, "unit": "°C"},
      {"measurement": "EC50 (read off the curve)", "setting": "[5]", "value": "~10", "unit": "nM"}
    ]},
    {"binder": "B2", "values": [
      {"measurement": "EC50 (read off the curve)", "setting": "[6]", "value": "~10", "unit": "nM"},
      {"measurement": "binding result", "setting": "[7]", "value": "no binding (tested: log [T8] about -5.9 M)"}
    ]}
  ]
}
